# B1: 单克隆抗体1D9 (AD7c-NTP单克隆抗体A1) (antibody, V domains shown)
# VH: DVQLQESGPGLVKPSQSLSLTCTVTDYSITSDYAWNWIRQFPGNKLEWMGYISYSGSTNYNPSLKSRFSITRDTSKNQFFLQLNSVTTEDTATYYCAGSELYYGYHYVMDYWGQGTSVTVSS
# VL: ENVLTQSPAIMSASLGQKVTMTCSASSSVSSSYLHWYQQRSGASPKPLIHRTSNLASGVPARFSGSGSGTSYSLTISSVEAEDDATYYCQQWSGYPLTFGAGTKLELK
# Molecular target: 重组AD7c-NTP蛋白 (human)
# Assay: indirect ELISA; plate coated with 1 μg/mL recombinant AD7c-NTP, antibody serially diluted, HRP goat anti-mouse IgG, OD450
# Chain of 重组AD7c-NTP蛋白 (human) (chain, as listed by the source): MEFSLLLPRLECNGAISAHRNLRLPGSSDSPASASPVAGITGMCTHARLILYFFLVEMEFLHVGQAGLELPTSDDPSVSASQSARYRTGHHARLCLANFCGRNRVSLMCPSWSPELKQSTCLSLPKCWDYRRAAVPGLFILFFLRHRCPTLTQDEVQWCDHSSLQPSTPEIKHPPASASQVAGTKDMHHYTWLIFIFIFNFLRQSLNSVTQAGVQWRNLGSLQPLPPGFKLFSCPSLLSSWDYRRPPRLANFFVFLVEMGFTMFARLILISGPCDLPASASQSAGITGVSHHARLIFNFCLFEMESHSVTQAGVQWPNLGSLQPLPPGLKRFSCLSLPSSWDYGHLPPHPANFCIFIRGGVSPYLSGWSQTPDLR
binder,measurement,value
B1,最小反应极限,9.77 ng/mL
